± gives the uncertainty stated by the source.
Test: amyloid nucleation score (Sup35N fusion, yeast selection) (log enrichment); library NNK1; higher = more nucleation; inactive = no reads after selection
How it was run: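 Yeast lacking psi expressed peptides of 20 random codons fused to Sup35N, received 100 μM copper sulfate for 24 hours, and were then grown for 7 days at 30°C on medium lacking adenine and uracil. Illumina sequencing of input and output plasmid inserts provided the reads. Nucleation scores are DiMSum log enrichments of output over input, centred on the mode of non-aggregating sequences. Any sequence with under 100 input reads was excluded.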

| Substance | amyloid nucleation score |
| --- | --- |
| GERTCSYIYGLFTIFYTGLR | -0.048 ± 1.3 |
| GHAEIYMWTLGIPSRLFGAI | 0.049 ± 0.45 |
| CDFAYRDWCHKMRYRYTRPC | 0.38 ± 0.39 |
| TFTSLNNVVYIDISDTSDKN | 3.81 ± 0.073 |
| TDLAHLSVSMFDNFSRELVL | -0.323 ± 1.6 |
| IMTPIRGNN | 0.209 ± 0.34 |
| EFGRGSNRVEFIMGASLALT | 1.09 ± 0.17 |
| DYLVQGLHILVKWGYDRTDG | -0.187 ± 0.5 |
| LLTMFLFNGSKYFLH | 2.3 ± 0.2 |
| SGKLCWLCVNCVILGSCKSL | -0.442 ± 0.73 |
| SKRLACSYSSMFVKCSEYKL | 0.413 ± 0.97 |
| LRGFRFVAIMLSVYRKVKVD | -0.531 ± 0.34 |
| ICMKLLFEYLVPVLRQAH | -0.307 ± 1.2 |
| KLALRKGSRDVH | 0.661 ± 0.97 |
| AFGLMNCDRLSLTSNINTGG | -0.4 ± 0.41 |
| YIGTKCWNANHVVLLLFCRG | -0.127 ± 0.32 |
| LFRYTVRQGWFKRETHWVPM | 0.296 ± 0.53 |
| EIRQVECLTCMRQ | -0.839 ± 1.2 |
| MCKVHIIEHCSLYWRSCGIW | inactive |
| CPCWLLMLFPCISYRRNLIV | -0.605 ± 0.46 |
| AIDRVSYHVKVVRGHINSKF | inactive |
| VYVDSCCHMF | 7.508 ± 0.069 |
| MQFNVSWRNGWSRWIGVSDV | 6.519 ± 0.054 |
| GFYVAETRKVRLCMARWYCG | 0.368 ± 0.47 |
| YWVILFPITIWSVKTSVGNH | 1.7 ± 0.31 |

| Substance | amyloid nucleation score |
| --- | --- |
| GYEDRRSRCSIWVVRFLNVL | -0.605 ± 0.8 |
| IYFFIPFSPVGDTDRSFWGY | -0.059 ± 0.98 |
| CCTDIISQRIVGYLMVVC | -0.755 ± 0.68 |
| SDGCYALIWFGREQ | -1.24 ± 1.1 |
| DQGSWFH | -0.31 ± 1.1 |
| NRIVADSESYCTSCLAVCAH | 0.177 ± 0.3 |
| ICWRMKVMWPYRTIGSSLTF | 1.02 ± 0.45 |
| LGIARDSWGKIKQFSAVDSC | 0.159 ± 0.26 |
| SFEDLEM | 0.457 ± 0.85 |
| LQWEVSSLNVLRFPRNMERC | 0.289 ± 0.4 |
| KLSGMIAEMRAGPCTYRILY | -0.511 ± 0.45 |
| GTGLVAMVAT | -1.24 ± 1.1 |
| MYRQTEGLVRFKGRGPFKVE | 0.355 ± 0.4 |
| SGTAKGVLAW | 1.4 ± 0.63 |
| MHNIASC | 0.629 ± 0.48 |
| VPWLKGAVDPVTRFGV | -0.016 ± 0.78 |
| LFALQGHGILSVHSFVRHWG | 0.165 ± 1.1 |
| CFVPY | -0.109 ± 0.53 |
| MWVFKTFCRRQRASVPNSLG | 0.034 ± 0.27 |
| FHKVLSMFMMIVLVVKTWTT | inactive |
| MLSYQR | inactive |
| FSNTCWNLKYHSNGAANFFV | 0.136 ± 0.96 |
| ILVVGWFFHLGCLTMSDVVV | 0.225 ± 1.1 |
| VDSHVYRNT | -0.203 ± 1.1 |
| TKIGKYKFAYCNAIAGARVE | 0.766 ± 0.87 |

| Substance | amyloid nucleation score |
| --- | --- |
| SCLNVNVMLYSWESVGPKSG | inactive |
| SLISCEWSYTWCGKFVILLV | -0.707 ± 1.1 |
| AIYIVVEI | -0.764 ± 1.2 |
| FPGLTFILAGMLCMTCKIRG | 4.12 ± 0.13 |
| KVLLR | 0.725 ± 0.36 |
| GIMSRDGKICMVSV | -0.091 ± 0.81 |
| FFFIQTSPLHAQYAISLVLR | -0.057 ± 0.52 |
| TVRKDGNTRSFFSSLRMQAS | -0.654 ± 0.3 |
| SFQFVSSCDIRRFAISRATG | -0.152 ± 0.47 |
| HNVQGRWFFRAHWMSYKHTI | 0.249 ± 0.62 |
| SYVFDKGFIVNVITRCRKKM | 1.44 ± 0.34 |
| DSNPNFCRLIKYVRNDCRTP | 0.012 ± 0.26 |
| AYKGMSLPDRIFKWLVWWHN | 0.008 ± 0.53 |
| FFTHCMWD | -1.05 ± 1.1 |
| ATRFTR | 0.282 ± 0.5 |
| GYCVLVTLLGNTNEYPAGCP | 0.563 ± 0.41 |
| SNRLLGVEAGVGCEIVKYNR | -0.301 ± 0.38 |
| IDMLFPFCCVALRSHRSLEG | 0.722 ± 0.46 |
| DPTTLYIEV | 1.29 ± 0.39 |
| LIFLDMAVL | -0.403 ± 1.4 |
| FVDSFVNIWLIKTFSRIVVD | 0.161 ± 0.3 |
| PYFINST | 1.75 ± 0.53 |
| VAGGDHAAHWKLAVKNPPPS | 0.1 ± 0.56 |
| NDYNWKYGFLRWCVLYEVM | 0.117 ± 0.4 |
| CLVYVQLWVARMSYPCVRFG | 0.214 ± 0.32 |

| Substance | amyloid nucleation score |
| --- | --- |
| VFLIEQPMERCK | 0.199 ± 0.22 |
| TVLKVSTEYFFLMKESGVVC | 0.593 ± 0.26 |
| FQPIGSMWNYRSMYVYSTLF | -0.062 ± 0.57 |
| ELMCFQQFKWKAMTYKWNGI | 0.337 ± 0.54 |
| HSCTTLPL | -0.461 ± 0.79 |
| MDACCMFNVWLVSECGFRVH | 5.81 ± 0.064 |
| LLLLCMDARRKRYSSMSACS | 1.02 ± 0.53 |
| KSPRFASTYPLSSSYSLRVI | -0.327 ± 0.28 |
| MNGSNRSCLFFCIGCVMPAW | 7.5 ± 0.081 |
| SDFYLGSRVTCGLNLSMAMG | 0.686 ± 0.62 |
| LEMCLQDVIDGSGQGQNEWG | -0.074 ± 0.7 |
| PLEKVFVGPSADASNEEHRL | -0.883 ± 1.1 |
| RVYENNIY | -1.05 ± 1.7 |
| PQEFLFHTDQRSGCVITETS | 0.179 ± 0.57 |
| LVTCLLHAG | -1.38 ± 0.58 |
| TDWFSSMLEN | 0.291 ± 0.3 |
| DLNNGDAKSDRFYGSFLHSW | -0.612 ± 0.32 |
| GGLKQFTGSRTHGLWSNGQM | -0.337 ± 0.89 |
| GLDLMSVRWGKTMAPSSLWW | 4.63 ± 0.12 |
| SPYGALFLDQLFYYQGADRG | 1.05 ± 0.84 |
| CVHTSVDDGRNYVKNLNDAR | inactive |
| YEFVRRDHVPFRLGMSNPED | 1.76 ± 0.53 |
| ASRYRKFTLWN | -0.466 ± 0.31 |
| RSRVLRMLFPAGEDYQLHMV | 0.8 ± 0.65 |
| LGFSVCSRLVFIWEYASFGK | 0.459 ± 0.46 |

| Substance | amyloid nucleation score |
| --- | --- |
| HDSAELDSRYNSASCVSLWL | -0.213 ± 1.1 |
| LFLFRSH | 5.445 ± 0.048 |
| RVIGTGYECTNATEDSLSYL | inactive |
| GSCVWFSGNRVPTFWWSGDS | -0.046 ± 0.31 |
| IQTKGNKDVIGVYITMYTRL | -0.671 ± 0.28 |
| CQYVCRDNFDYQTSSSCGCD | inactive |
| KSRSRLPCTRSHTIEFVRMR | 0.831 ± 0.56 |
| AGYGFKCMGYRLDLKTPFVY | 0.019 ± 0.59 |
| YMCGLSECAS | 5 ± 0.062 |
| FQVCLVLSAHVRPQRYFKSW | -0.429 ± 0.8 |
| MHTEFFGGMAHTTLWDVMSP | -0.977 ± 0.77 |
| LMLGKLWFPGMCYESKWELG | -0.181 ± 1 |
| QTRRYTVNCLL | inactive |
| SSMSPTVYVVRR | 0.163 ± 0.9 |
| SDFVWRCFAMSIRLKRLYRS | -0.68 ± 1.7 |
| SVYTNVLDTTNQGTKQNGPR | 1.01 ± 0.47 |
| NRMLSSKQAPSQNFQ | 0.814 ± 0.46 |
| LKEFISCGPGCINWLHGKDW | -0.519 ± 0.37 |
| ISFCGTRGFK | 0.154 ± 0.75 |
| LHSWSVAILIHYKMRD | -0.084 ± 0.27 |
| ACCYVDLKIKFNVLPAVNIK | inactive |
| FLFRRYCAEEGLVWMKIVDT | 0.864 ± 0.53 |
| VLIDMSGSCSKAMHAIRQDR | 0.218 ± 0.73 |
| VCPVHSNKGLQFLSMRHYSS | 0.511 ± 0.87 |
| VSALAVRARWAINTLARDRR | 0.9 ± 0.66 |

| Substance | amyloid nucleation score |
| --- | --- |
| YLLESSTIGIV | 0.474 ± 0.69 |
| SYSSVVSVYFLQIYFF | 4.05 ± 0.054 |
| MSEVTMGLRTMFVIFNR | 2.79 ± 0.1 |
| LAAST | 0.311 ± 0.4 |
| VMTFLISLSWYSL | 0.328 ± 0.23 |
| SEMHHCTRGG | -0.167 ± 0.9 |
| GLLIVGRRYLGGADVDIHEE | 0.713 ± 0.68 |
| LSCLRSYVTMHMGIIGYLFN | 0.218 ± 0.27 |
| AFYIRIGVHFPQ | -0.525 ± 1.1 |
| DCCISVSHSGRAALYVKVEI | 0.022 ± 0.46 |
| DIRWGVSFIKGNFHTEL | inactive |
| GFLTVNYWHSEV | 0.065 ± 0.21 |
| RGHLLGFMRRLCFIGLR | -0.372 ± 0.64 |
| LDHLVNDTVEILQYGAPSIH | 0.733 ± 0.88 |
| ISWQAVTSRGTCNN | -1.01 ± 0.68 |
| FRKLKTAYDFFHCRCPHSNA | 0.373 ± 0.78 |
| INCQMWYRGPYIIQFLNLGW | 6.846 ± 0.055 |
| GRTHEEYF | 0.048 ± 1.2 |
| RCGCRRVVFDGFIGIGALRA | 0.298 ± 0.6 |
| STTSMPDWLNVWVSRSSSVV | 1.06 ± 0.28 |
| SVRVMVLFWIKHCRLLWGRH | -0.405 ± 1.7 |
| SSYGKFDGKCLQHM | -0.157 ± 0.76 |
| GHYKGECYSLMNPV | -0.067 ± 1.2 |
| QFCMKSTPMSHFR | -0.772 ± 0.61 |
| VTYDKAQG | 0.051 ± 0.68 |

| Substance | amyloid nucleation score |
| --- | --- |
| GCLRTWQITLVEYNCMTLRI | 0.215 ± 1.2 |
| RSVNSETQKFMRWFMRVWTP | -0.332 ± 0.33 |
| SSEDYALVLRSSGALVCSCL | 0.418 ± 1 |
| KHLYVR | -0.752 ± 0.56 |
| NHLRGKCTWGRYCWSVVIRF | 0.362 ± 0.83 |
| CKTCFTLRKIF | -0.461 ± 0.38 |
| LWLAFIIES | 0.338 ± 0.25 |
| VLCVSRRSAIYTWGSSLYCD | -0.691 ± 1.4 |
| TDFMFFWGDFMVTYTAVVCR | -0.096 ± 0.44 |
| GFIKPILEQGRYHNESRVLL | 0.243 ± 0.58 |
| RLICGPWNYCCQYKYNHLVL | 4 ± 0.12 |
| SVIFWMGRRMLLLACVPESA | -0.128 ± 0.81 |
| NNKCWNIVRLVHRSLTLTRH | inactive |
| CGNSFTKLTTMLTRHHIADG | 0.437 ± 0.38 |
| SAIYRRWAHRAQSAWQVESR | 1.94 ± 0.7 |
| NNTFVIVKFEAKDTFVEGVR | 1.57 ± 0.3 |
| LVVKQLLNSAGCTRPCTVRC | 0.164 ± 0.55 |
| VSVSNISSVLTLSGKMLIST | -0.031 ± 0.39 |
| SSLPDAWVYLGSSWLEDHGR | 0.461 ± 0.7 |
| YKCMSKIFQFLVWAGEEWGL | -0.398 ± 1.1 |
